The DeepSol protein solubility set

Test: soluble on expression in E. coli; label from the status in PepcDB or PDB records

Row | Sequence | soluble on expression in E. coli
1 | MTVAVSPDGLPALVLNADYRPLSYYPLSLWSWQDAIKAVFLDRVNIVAEYEHAVSSPTFSMKLPSVVSLKAYVKPSRHPAFTRFNVFLRDRFQCQYCGTPDDLTFDHVIPRHRGGATTWENVVAACSPCNLRKGGMMPAHAKMWPLQKPYQPTVHDLHNNGRLFPPNHLHESWMDYLYWDVELEPLEHHHHHH | not soluble
2 | MTVEASRPARSRQAVIFCYNAGYLPFALHAAERIDRLTPGRAFDICICHGEEPILVPDSLSRLDVRLIRIDTTGVFTGLRLDPGRTHDVYLRLALPQALAADYDRILYLDADIFVQGGDFTALLGLDLGNHPLGAVRDNIQWRTPERRAEQFRRLGIPAAPYFNAGLLLMDVARYNEMNLLDRCVELGRREASRMIRHDQNLYNAVLRGDWAELSPMWNWQYSWSARLFEAMRYPHIVHFIGTLKPWADRKGHYSPRFAQSYDRFIADHFPDRPRNPVSGGLSPDSRMMRRMLVKHFLSSSKLARYLDRFPSDLTVIRLEHHHHHH | not soluble
3 | MTVETFHPKQTTTLETPAKTLEAASADSVNTGNVATGNRIGFVSLGCPKNLVDSERILTQLRIDGYEVTNSYDNADLVIVNTCGFIDAAVEESLDAVREALEENGKVIVTGCLGAKENQIREVHPDVLEITGPHSYEAVLKHVHKYVPKPEHNPFTSLIPQTGVKLTPKHYAYLKISEGCDNRCTFCIIPALRGDLDSRGAGSVLDEAKRLVEAGVQEILVVSQDTSAYGKDKGGRTDFWNGMPVKQDITSLARQLGKMGAWVRLHYIYPYPWVDDLIPLMAEGLILPYLDIPMQHASPRILKMMKRPGRVDRQLEAIQRWREICPDLVIRSTFIVGFPGETEEDFEMLLDFLREARLDRVGCFKYSEVEGAVANTIAELISEEVKEDRYHRFMEVQAEISAERLARFVGRTMDILIDDVDEEGAIGRSFADAPEIDGMVFINGETELEPGMLVRAVITHSDEHDLWAELVDADAEDEVEALEHHHHHH | soluble
4 | MTVSLLDSSTRYHAVTALNGNVLFSGARRPMPTVMLLHTPPPEFIRSQIQQMVVDYVTDISMVAIAPGNPLYNLYQYGVGYEVHLYLNAMNGSQSLTVELIVALDDEDPETVLGFLLYLPVQDDPQACAVAYMAVLESHRCQGIARLMLDRMVSRYAHAELYCTVAKVPYFQAMGFQVLGARGPQVIMNTRDHGTDGLLAVMDIAPIYSSVEVRQIHAYLLKQHGNTAMLDAEKQRDHHLDRMTREARAFAEQHLENGDSVHGVSATVRLH | not soluble
5 | MTVYNRTKQKTEDLVTEGAQAADTPRLAAKSADIVITMLADDDSVSTVTFGEDGLLEGLAENGIHISMSTISVEFSEKLAAAHAEKGQFFLAAPVLGRPDAAAKAALRIITAGPAEAKQAAKPLLDSLSQQIFDVGEESKTANAAKISINFLLVSMLEALSESFLMMEKYGLEQKQFLEIASALFGSPVYQNYGTIMAEQKFEPAGFKMSLGLKDTNLALAAAKRVSANLPLAELAKSHFESGIEKGFGDLDWAALIKCIK | not soluble
6 | MTYDYVIGMDACKYFHHACVLDIDGTQVLSKRINQNEQSLRALFSAFSAYDHKVLVVVDQPNNIGRLTVAVAQDIGIDVRYLPGLAMRQLSRIHAGNAKTDIRDAYIIAHAAKNLPESLRSVDRVEEAFLQLKVLNGIDEDLARSYTRLINQIRSALVGCYPQFEQALRGQIIHRKWVLHLLARYGGPTKIKRLGKAKAAAFARRYKARNPEPVLDAIFAAISEQTVTIAGAHYAEMGVAMSAKDALLKLEHRQQIEKEVIELINDIPHTQFLLSMPGIGPKTAAQILMTAGDMSDFPSAGHLASYAGLSPRTNQSGTSIMSNSLNRAGNKKLKNALWQSSFASIRFHERSRQFYERKRREGKRHNAAVVALARRRLNVLYAMMRNHEHYHDPAPSQEDLAA | not soluble
7 | MTYEAFVELVERLWEEVPEDFKRGLQGVHVFPEAKPEPGLEGVWRLGEYLDPGPPSAFGGFEDLGRHIALYYGSFLEVAGEGFDWEAEVWETMLHELRHHLESLAGRDDLVQEDLRRLDAFRRGGPSGEG | soluble
8 | MTYQTIVVAVDGSKEAEWALKKAIQIAKRNGAKLILSHIIDLRGFTTVEAHDYALAERSEQYANELLERYKNEAIAAGLDDVDIAVEFGSPKVKIAKDVAPKYKADLIVCGATGLNAVERLLIGSVSENIVRHAKCDVLVVRTPKE | soluble
